In patent US20090203580:

Assays:
[1] = test system: heat-inactivated alpha-1 antitrypsin
[2] = test system: human alpha-1 antitrypsin (native, not heat-inactivated; clinical grade, e.g. Aralast)

elastase (e.g., Sigma), species not stated
elastase activity: hydrolysis of N-Succinyl-Ala-Ala-Ala-p-nitroanalide, absorbance at 410 nm [1]: combining HIAAT with elastase produced a curve similar to that of elastase alone | elastase activity: hydrolysis of N-Succinyl-Ala-Ala-Ala-p-nitroanalide, absorbance at 410 nm [2]: Combining native (NOT heat-inactivated) AAT ablated elastase processing of the N-Succinyl-Ala-Ala-Ala-p-nitroanalide substrate and blocked the increase in A410 nm
